In patent publication US8975044B2, “Polynucleotides encoding for frizzled-binding agents and uses thereof” (OncoMed Pharmaceuticals, Inc., priority 2008, dated 2015):

B1: 18R5: human anti-FZD antibody; VH SEQ ID NO:10 (as 18R8), VL SEQ ID NO:14; binds FZD1, 2, 5, 7, 8 (antibody, V domains shown)
VH: EVQLVESGGGLVQPGGSLRLSCAASGFTFSHYTLSWVRQAPGKGLEWVSVISGDGSYTYYADSVKGRFTISSDNSKNTLYLQMNSLRAEDTAVYYCARNFIKYVFANWGQGTLVTVSS
VL: DIELTQPPSVSVAPGQTARISCSGDNIGSFYVHWYQQKPGQAPVLVIYDKSNRPSGIPERFSGSNSGNTATLTISGTQAEDEADYYCQSYANTLSLVFGGGTKLTVLG
modifications: 18R5/18R8 heavy chain variable region (VH); 18R5 light chain variable region (VL)
B2: 18R8: human anti-FZD antibody from phage display; VH SEQ ID NO:10, VL SEQ ID NO:12; binds FZD1, 2, 5, 7, 8 (antibody, V domains shown)
VH: B1 VH
VL: DIELTQPPSVSVAPGQTARISCSGDKLGKKYASWYQQKPGQAPVLVIYEKDNRPSGIPERFSGSNSGNTATLTISGTQAEDEADYYCSSFAGNSLEVFGGGTKLTVLG
modifications: 18R5/18R8 heavy chain variable region (VH); 18R8 light chain variable region (VL)

Assays:
PE13 breast tumors = experiment: PE13 breast tumor limiting dilution assay (LDA); assay type: in vivo, mice; conditions: antibody 20 mg/kg once per week; 50, 150 or 500 cells re-injected, 59 days; L-calc
Experimental: PE13 breast tumor limiting dilution assay (LDA) study with 18R5 mAb: Animals bearing PE13 breast tumors were treated with either control antibody (gray circles), 18R5 (open triangles), taxol (black circles), or the combination of taxol and 18R5 (open squares). Taxol was dosed at 15 mg/kg twice per week and the antibodies were dosed 20 mg/kg once per week. Tumors were harvested and the human tumor cells were purified by lin depletion. 50, 150, or 500 tumor cells were injected into a new cohort of mice (n=10 per cell dose). Tumor growth frequency was monitored after 59 days and used to calculate the CSC frequency (L-calc).

[1] = tested on: OMP-Pn4 pancreatic tumor xenografts; experiment: OMP-Pn4 pancreatic tumor xenograft growth; assay type: in vivo, NOD/SCID mice; conditions: 10 mg/kg IP once weekly
Experimental: In another embodiment, anti-FZD antibodies were analyzed for their ability to reduce the growth of OMP-Pn4 pancreatic tumor xenografts. NOD/SCID mice were purchased from Harlan (Indianapolis, Ind.) and allowed to acclimate for several days prior to the studies. The establishment and characterization of in vivo cancer stem cell-driven pancreas xenograft models were described previously (Li et al., Cancer Res., 67:1030-7, 2007). For efficacy studies, OMP-Pn4 human pancreatic tumor cells were dissociated into single cell suspensions, resuspended in 1:1 (v/v) mixture of FACS buffer (Hank's balanced salt solution [HBSS] supplemented with 2% heat-inactivated fetal bovine serum and 20 mM Hepes) and Matrigel (BD Bioscience, San Jose, Calif.) and implanted subcutaneously into the right flank region of 6-7 weeks old male NOD/SCID mice with a 25-gauge needle containing 50,000 cells/100 μL. Tumor growth was monitored weekly and tumor measurements were initiated once tumors were palpable. […] Tumor growth was measured by with an electronic caliper (Coast Tools Company, San Leandro, Calif.). Tumors were measured once a week and tumor volume was determined using the formula ½(a×b^2); where a=length (longest axis of the tumor), and b=breadth (shortest axis of the tumor). […] Data are expressed as mean±S.E.M. Differences in mean values between groups were analyzed by non-parimetric t test. […]

Wnt target genes = experiment: qPCR of Wnt target genes in duodenum of OMP-PN13-bearing mice; assay type: in vivo, NOD/SCID mice
Experimental: Frozen OMP-PN13 tumor cells that have been passaged twice in mice were obtained from Oncomed's tumor bank. They were thawed and injected subcutaneously into the left flank of NOD/SCID mice immediately following thawing. ˜ 25,000 viable cells were injected per animal. The mice were monitored weekly for tumor growth. After their onset, the size of the tumors was measured once weekly by caliper. 200-300 mm^3 tumor-bearing mice were dispatched in treatment groups that each contained 5 animals. […] Ab treatment was initiated the day after randomization. LZ1 was used as the negative control Ab. 3 doses of 10 mg/kg of Ab were administered via intra-peritoneal injection over a 12-day period. Mice were euthanized 24 hours after the last injection. Tumor, duodenum and liver were harvested.
Total RNAs were also extracted from tumor, duodenum and liver for Wnt target gene expression analyses using qPCR.
Tissues were immediately transferred into RNAlater (QIAGEN) at the time of harvest. RNA was extracted using the QIAGEN RNeasy for Fibrous Tissue mini kit according to the manufacturer instructions. […] All 5 tumors of each treatment group were analyzed. […] ABI SDS 2.2.1 software was used to analyze the data and calculate DeltaCt values that were converted into relative quantities. […] Fold inhibition factors were then calculated relative to control antibody (LZ1).

[2] = tested on: OMP-LU24 human lung tumors; experiment: OMP-LU24 lung tumor xenograft growth; assay type: in vivo, NOD-SCID mice; conditions: antibody 10 mg/kg IP once per week, Taxol 15 mg/kg IP once per week
Experimental: 50,000 OMP-LU24 human lung tumor cells were injected subcutaneously in NOD-SCID mice. Tumors were allowed to grow for 27 days until they reached an average volume of 143 mm^3. The animals were randomized into 4 groups (n=9 per group) and treated with either control antibody (“Control Ab”), anti-FZD 18R5 (“18R5”), Taxol® (“Taxol”) or the combination of 18R5 plus Taxol® (“18R5+Taxol”). Antibodies were dosed at 10 mg/kg intraperitoneal (IP), once per week and Taxol® was dosed at 15 mg/kg, IP, once per week.

PE13 breast tumor = PE13 breast tumor recurrence study; assay type: in vivo, Nod-Scid mice; conditions: taxol 15 mg/kg twice per week + 18R5 20 mg/kg once per week vs taxol + control antibody; taxol stopped at day 70
Experimental: PE13 breast tumor recurrence study with 18R5 mAb: PE13 breast tumor cells were injected into Nod-Scid mice and allowed to grow until the tumors had reached approximately 100 mm^3. The animals were randomized into two groups (n=10) and given taxol (15 mg/kg, twice per week)+Control antibody (black squares) or the same dose of taxol+Anti-FZD 18R5 (gray open circles). Antibodies were dosed at 20 mg/kg once per week. Taxol treatments were stopped at day 70 and the antibody treatments continued.

Wnt signaling = experiment: 8xTCF luciferase reporter assay in STF293 cells with Wnt-overexpressing HEK293 cells; assay type: cell-based, human; conditions: 20 μg/ml; Wnt1, Wnt2, Wnt3, Wnt7A, Wnt7B, Wnt10B, Wnt3A inhibited; 18 hours
Experimental: In further experiments, the ability of the 18R8 antibody to antagonize signaling by different Wnt ligands was determined. HEK 293 cells were transfected with Wntl, Wnt2, Wnt2b2, Wnt3, Wnt3a, Wnt7a, Wnt7b, Wnt8a, Wnt9b, and Wnt10b for forty eight hours by Fugene 6 (Roche). Wnt3A conditioned medium (“WNT3ACM”) was used as a positive control of activation. STF293 cells, were cultured in DMEM supplemented with antibiotics and 10% FCS and treated with 20 μg/ml 18R8 antibody or no antibody. The Wnt-overexpressing HEK293 cells were then added. Eighteen hours following treatment, luciferase levels were measured using a dual luciferase assay kit.

| Molecule | breast cancer stem cell frequency (PE13 breast tumors) | tumor growth, monotherapy [1] | duodenum Lgr5 (Wnt target genes; fold relative to control antibody LZ1, 3 doses of 10 mg/kg over 12 days) | Wnt target gene in the duodenum (Wnt target genes; relative to LZ1) | xenograft tumor growth [2] | tumor regression and recurrence (PE13 breast tumor) | inhibition of signaling by different Wnt ligands (Wnt signaling) |
| --- | --- | --- | --- | --- | --- | --- | --- |
| B1 | Reduction of breast cancer stem cell frequency | did not result in a significant reduction in tumor growth | −2.6x | unaffected | inhibits OMP-LU24 xenograft tumor growth | enhance the rate of tumor regression and to delay tumor recurrence |  |
| B2 |  |  |  |  |  |  | inhibit signaling of a variety of Wnts |
